Laboratory results published in article PMC11208158, “Structural mechanism of bridge RNA-guided recombination”.

B1: WT bRNA + 38-bp tDNA 6mm + 44-bp dDNA 6mm (mixed)
RNA: GGGAGUGCAGAGAAAAUCGGCCAGUUUUCUCUGCCUGCAGUCCGCAUGCCGUAUCGGGCCUUGGGUUCUAACCUGUUGCGUAGAUUUAUGCAGCGGACUGCCUUUCUCCCAAAGUGAUAAACCGGACAGUAUCAUGGACCGGUUUUCCCGGUAAUCCGUAUUUGCAAGGUUGGUUUCACU
DNA 1: GCCGGGTAATACCACCAAGTCTTCTACAGATGAGCTCG
DNA 2: CGAGCTCATCTGTAGGCCTGATGGTGGTATTACCCGGC
DNA 3: TGCAGGCCATAAGTCATACTTGTATTATCCCTCCAGTGCAGAGA
DNA 4: TCTCTGCACTGGAGGGATAATACAAGATACTGTTATGGCCTGCA
B2: WT bRNA (177 nt) (structured_RNA)
RNA: AGUGCAGAGAAAAUCGGCCAGUUUUCUCUGCCUGCAGUCCGCAUGCCGUAUCGGGCCUUGGGUUCUAACCUGUUGCGUAGAUUUAUGCAGCGGACUGCCUUUCUCCCAAAGUGAUAAACCGGACAGUAUCAUGGACCGGUUUUCCCGGUAAUCCGUAUUUGCAAGGUUGGUUUCACU

Experiments:
IS621 recombinase [1] = biological target: T1, IS621 recombinase (Escherichia coli, UniProt A0A0E0Y1P1 1-326); assay: cryo-EM; initial synaptic complex; MST: 20 nM labelled IS621, RNA 0.076-250 nM, 37 C; labelled protein eluted in 20 mM Tris-HCl pH 7.5, 500 mM NaCl, 5 mM MgCl2, 1 mM DTT, 0.01% Tween 20; conditions: protein: recombinant; tags: N-terminal His8, Twin-Strep, HRV 3C site (tag removal not described); chain copies: 4; S6:S5 and S14:S13 duplexes with 6-nt mismatches at positions 2-7; TBL and DBL from two bRNA copies
IS621 recombinase [2] = biological target: T1, IS621 recombinase; assay: MST; 5 mM Mg2+; MST: 20 nM labelled IS621, RNA 0.076-250 nM, 37 C; labelled protein eluted in 20 mM Tris-HCl pH 7.5, 500 mM NaCl, 5 mM MgCl2, 1 mM DTT, 0.01% Tween 20; conditions: protein: recombinant; tags: N-terminal His8, Twin-Strep, HRV 3C site (tag removal not described); chain copies: 4; 5' stem loop, TBL and DBL

Binder | binding result (IS621 recombinase [1]) | Kd (IS621 recombinase [2])
B1 | binds | 
B2 |  | 3 ± 1 nM
